Experimental data as given in patent US20220040304A1, “A COMPOSITION FOR CANCER CELL DEATH AND ITS USE” (Industry-University Cooperation Foundation Hanyang …, priority 2018, published 2022).
Entries after “also recorded” stand apart in the source; their conditions may differ.

B1: KR: first protein KillerRed, ROS-generating protein (superoxide), expressed from pRSET-KillerRed, 31 kDa (protein)
chain: MRGSHHHHHHGMASMTGGQQMGRDLYDDDDKDPMLCCMRRTKQVEKNDEDQKISEGGPALFQSDMTFKIFIDGEVNGQKFTIVADGSSKFPHGDFNVHAVCETGKLPMSWKPICHLIQYGEPFFARYPDGISHFAQECFPEGLSIDRTVRFENDGTMTSHHTYELDDTCVVSRITVNCDGFQPDGPIMRDQLVDILPNETHMFPHGPNAVRQLAFIGFTTADGGLMMGHFDSKMTFNGSRAIEIPGPHFVTIITKQMRDTSDKRDHVCQREVAYAHSVPRITSAIGSDED
modifications: pRSET-KillerRed
notes: first protein KillerRed, ROS-generating protein (superoxide), expressed from pRSET-KillerRed, 31 kDa
B2: RLuc8.6-KR-LP: fusion protein of RLuc8.6, KillerRed and lead peptide WLEAAYQRFL, 71 kDa (protein)
chain: MRGSHHHHHHGMASMTGGQQMGRDLYDDDDKDPMASKVYDPEQRKRMITGPQWWARCKQMNVLDSFINYYDSEKHAENAVIFLHGNATSSYLWRHVVPHIEPVARCIIPDLIGMGKSGKSGNGSYRLLDHYKYLTAWFELLNLPKKIIFVGHDWGSALAFHYAYEHQDRIKAIVHMESVVDVIESWMGWPDIEEELALIKSEEGEKMVLENNFFVETLLPSKIMRKLEPEEFAAYLEPFKEKGEVRRPTLSWPREIPLVKGGKPDVVQIVRNYNAYLRASDDLPKLFIESDPGFFYNAIVEGAKKFPNTEFVKVKGLHFLQEDAPDEMGKYIKSFVERVLKNEQEFGGGMLCCMRRTKQVEKNDEDQKISEGGPALFQSDMTFKIFIDGEVNGQKFTIVADGSSKFPHGDFNVHAVCETGKLPMSWKPICHLIQYGEPFFARYPDGISHFAQECFPEGLSIDRTVRFENDGTMTSHHTYELDDTCVVSRITVNCDGFQPDGPIMRDQLVDILPNETHMFPHGPNAVRQLAFIGFTTADGGLMMGHFDSKMTFNGSRAIEIPGPHFVTIITKQMRDTSDKRDHVCQREVAYAHSVPRITSAIGSDEDGGGWLEAAYQRFL
modifications: pRSET-RLuc8.6-KillerRed-Lead peptide
B3: RLuc8.6-KR: fusion protein of RLuc8.6 and KillerRed without lead peptide, 69 kDa (protein)
chain: MRGSHHHHHHGMASMTGGQQMGRDLYDDDDKDPMASKVYDPEQRKRMITGPQWWARCKQMNVLDSFINYYDSEKHAENAVIFLHGNATSSYLWRHVVPHIEPVARCIIPDLIGMGKSGKSGNGSYRLLDHYKYLTAWFELLNLPKKIIFVGHDWGSALAFHYAYEHQDRIKAIVHMESVVDVIESWMGWPDIEEELALIKSEEGEKMVLENNFFVETLLPSKIMRKLEPEEFAAYLEPFKEKGEVRRPTLSWPREIPLVKGGKPDVVQIVRNYNAYLRASDDLPKLFIESDPGFFYNAIVEGAKKFPNTEFVKVKGLHFLQEDAPDEMGKYIKSFVERVLKNEQEFGGGMLCCMRRTKQVEKNDEDQKISEGGPALFQSDMTFKIFIDGEVNGQKFTIVADGSSKFPHGDFNVHAVCETGKLPMSWKPICHLIQYGEPFFARYPDGISHFAQECFPEGLSIDRTVRFENDGTMTSHHTYELDDTCVVSRITVNCDGFQPDGPIMRDQLVDILPNETHMFPHGPNAVRQLAFIGFTTADGGLMMGHFDSKMTFNGSRAIEIPGPHFVTIITKQMRDTSDKRDHVCQREVAYAHSVPRITSAIGSDED
modifications: pRSET-RLuc8.6-KillerRed

Tested on: MCF-7 cells
Assay: MTT colorimetric change and cell viability after light irradiation
Format: cell-based, human
Conditions: MCF-7, protein 10 μM 24 hours, light 10 mW/cm^2, no Co-h
Method: MCF-7 cells were seeded at 5×10^5 cells/mL in a 96-well plate (SPL Cell Culture Plate, 96 well (SPL, Cat #30096)), and cultured at 37° C. for 24 hours (overnight). After the overnight culture, the cells were washed with FBS & Phenol red-free media (RPMI, Well Gene., Korea, Cat #LM011-02), and 100 μL of an FBS-free medium containing the purified protein (final concentration: 10 μM) was added, followed by reaction at 37° C. for 24 hours. After the reaction for 24 hours, the cells were washed with FBS & Phenol red-free media (RPMI), and then 100 μL of FBS & Phenol red-free media (RPMI) was added again. After light irradiation at 10 mW/cm^2 over time, the cells were washed with FBS & Phenol red-free media (RPMI), and 100 μL of FBS & Phenol red-free media (RPMI) was added again. 10 μL of 3-(4,5-dimethylthiazol-2-yl)-2,5-diphenyltetrazolium bromide (MTT; Cell Biolabs Inc., USA; final concentration: 1×) was added, followed by reaction at 37° C. for 4 hours. 100 μL of a supernatant was removed, and 100 μL of DMSO (Sigma-Aldrich., USA) was added, followed by reaction for 10 minutes. The colorimetric change of MTT according to a protein type treated to the cells and light irradiation time was confirmed, and then cell viability was confirmed by measuring the absorbance intensity at 570 nm using a plate reader.

Molecule	cell viability / colorimetric change of MTT with light irradiation time
B1	alive
B2	killed; also recorded: cell viability decreased
B3	alive

Tested on: MCF-7 cells
Assay: MTT colorimetric change and cell viability after reaction with Co-h substrate
Format: cell-based, human
Conditions: MCF-7, protein 10 μM 24 hours, Co-h 150 μM, without light irradiation
Method: MCF-7 cells were seeded at 5×10^5 cells/mL in a 96-well plate (SPL Cell Culture Plate, 96 well (SPL, Cat #30096)), and cultured at 37° C. for 24 hours (overnight).
(§1) After the culture for 24 hours, the cells were washed with FBS & Phenol red-free media (RPMI), and 100 μL of an FBS-free medium containing the purified protein (final concentration: 10 μM) was added, followed by reaction at 37° C. for 24 hours.
After the reaction for 24 hours, the cells were washed with FBS & Phenol red-free media (RPMI), and then 100 μL of FBS & Phenol red-free media (RPMI) containing a Co-h substrate solution (final concentration: 150 μM) was added. The cells were washed with FBS & Phenol red-free media (RPMI), and 100 μL of fresh FBS & Phenol red-free media (RPMI) were then added.
10 μL of 3-(4,5-dimethylthiazol-2-yl)-2,5-diphenyltetrazolium bromide (MTT) (final concentration: 1×) was added, followed by reaction at 37° C. for 4 hours. After 100 μL of a supernatant was removed, 100 μL of DMSO was added, followed by reaction for 10 minutes. The colorimetric change of MTT according to a protein type treated to the cells and the light irradiation time was checked, and then cell viability was confirmed by measuring the absorbance intensity at 570 nm using a plate reader.
MTT is an assay for measuring cell proliferation or live cells through the presence of blue-violet insoluble […] in the mitochondria of the live cells, where it has been reduced from a yellow soluble substrate, MTT tetrazolium, by the action of a dehydrogenase.

Molecule	cell viability / colorimetric change of MTT with reaction time with Co-h
B1	the staining becomes pink
B2	die and cell viability is reduced
B3	the staining becomes pink

Tested on: MCF-7 cells
Assay: Cell death by SYTOX Green or EthD-1 and DAPI fluorescence (light irradiation or Co-h)
Format: cell-based, human
Conditions: MCF-7, protein 10 μM 24 hours; light 10 mW/cm^2 or Co-h 150 μM over time
Method: as §1, with “MCF-7 cells were seeded at 5×10^5 cells/mL in a 96-well plate (SPL Cell Culture Plate, 96 well (SPL, Cat #30096)), and cultured at 37° C. for 24 hours (overnight). After” for “After”
After the reaction for 24 hours, the cells were washed with FBS & Phenol red-free media (RPMI), and then 100 μL of FBS & Phenol red-free media (RPMI) was then added.
After the reaction, 8.1 μL of FMN (final concentration: 150 μM) was added. After reaction for 18 hours or 24 hours, the cells were washed with FBS & Phenol red-free media (RPMI), and 100 μL of FBS & Phenol red-free media (RPMI) containing FMN (final concentration: 150 μM) was added, followed by reaction at 37° C. for 1 hour.
After the irradiation with light at 10 mW/cm^2 over time, 50 μL of SYTOX Green (Thermo Scientific Inc., USA; final concentration: 261 nM) staining DNA of dead cells was added and reacted at 37° C. for 30 minutes, and 10 μL of DAPI (Vecta Labs., Australia) staining DNA of live cells was added and reacted for 5 minutes.
SYTOX Green or EthD-1 and DAPI fluorescence images were observed using a confocal microscope according to a protein type treated to cells and i) light irradiation time or ii) reaction time with a Co-h substrate, and cell death was confirmed by measuring relative fluorescence intensity at an excitation wavelength of 504 nm and an emission wavelength of 523 nm of SYTOX Green, and an excitation wavelength of 525 nm and an emission wavelength of 590 nm of EthD-1 using a plate reader.
Whether or not Cell death was observed by fluorescence microscopy using SYTOX Green (dead cell-specific dye, green) or EthD-1 (dead cell-specific dye, red) and DAPI (live cell-specific dye, blue).

Molecule	cell death by staining (SYTOX Green or EthD-1 dead cells, DAPI live cells)
B1	stained with DAPI
B2	stained with SYTOX Green or EthD-1; also recorded: the number of dead cells increases
B3	stained with DAPI
